{
  "source": "paper PMC3136172",
  "about": "“Stabilization of a G-Quadruplex from Unfolding by Replication Protein A Using Potassium and the Porphyrin TMPyP4”",
  "key": {"[1]": {"target": "RPA-CDE-core (UniProt P27694;P15927;P35244 436-616;45-171;1-121)", "sequence (P27694 436-616, chain 1 of 3)": "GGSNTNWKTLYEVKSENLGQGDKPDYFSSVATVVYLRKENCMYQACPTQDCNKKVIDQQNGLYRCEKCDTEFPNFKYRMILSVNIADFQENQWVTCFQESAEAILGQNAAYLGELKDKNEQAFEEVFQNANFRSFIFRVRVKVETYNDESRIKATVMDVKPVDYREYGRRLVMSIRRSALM", "sequence (P15927 45-171, chain 2 of 3)": "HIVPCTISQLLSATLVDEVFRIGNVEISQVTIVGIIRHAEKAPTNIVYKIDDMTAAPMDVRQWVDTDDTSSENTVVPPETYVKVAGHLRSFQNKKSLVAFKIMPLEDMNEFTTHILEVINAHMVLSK", "sequence (P35244 whole entry, chain 3 of 3)": "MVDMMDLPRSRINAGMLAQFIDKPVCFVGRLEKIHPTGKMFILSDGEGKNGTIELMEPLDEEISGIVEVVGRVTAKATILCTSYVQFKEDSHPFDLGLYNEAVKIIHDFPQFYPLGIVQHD", "test": "CD titration (G4 unfolding); 100 mM NaCl, 2 mM Mg2+; efficient unfolding, less than RPA; 25 mM Tris pH 7.5, 2 mM MgCl2, 0.5% inositol, 1 mM DTT, 100 mM NaCl or 100 mM KCl, 25 C; 1.4 uM DNA, protein:DNA ratio 0-5", "details": "protein: recombinant; tags: N-terminal His-tag, thrombin-cleaved; copies: 1;1;1; intramolecular G4; mixed parallel/antiparallel in K+, antiparallel in Na+"}, "[2]": {"target": "RPA (full-length replication protein A) (human, UniProt P27694;P15927;P35244 1-616;1-270;1-121)", "sequence (P27694 whole entry, chain 1 of 3)": "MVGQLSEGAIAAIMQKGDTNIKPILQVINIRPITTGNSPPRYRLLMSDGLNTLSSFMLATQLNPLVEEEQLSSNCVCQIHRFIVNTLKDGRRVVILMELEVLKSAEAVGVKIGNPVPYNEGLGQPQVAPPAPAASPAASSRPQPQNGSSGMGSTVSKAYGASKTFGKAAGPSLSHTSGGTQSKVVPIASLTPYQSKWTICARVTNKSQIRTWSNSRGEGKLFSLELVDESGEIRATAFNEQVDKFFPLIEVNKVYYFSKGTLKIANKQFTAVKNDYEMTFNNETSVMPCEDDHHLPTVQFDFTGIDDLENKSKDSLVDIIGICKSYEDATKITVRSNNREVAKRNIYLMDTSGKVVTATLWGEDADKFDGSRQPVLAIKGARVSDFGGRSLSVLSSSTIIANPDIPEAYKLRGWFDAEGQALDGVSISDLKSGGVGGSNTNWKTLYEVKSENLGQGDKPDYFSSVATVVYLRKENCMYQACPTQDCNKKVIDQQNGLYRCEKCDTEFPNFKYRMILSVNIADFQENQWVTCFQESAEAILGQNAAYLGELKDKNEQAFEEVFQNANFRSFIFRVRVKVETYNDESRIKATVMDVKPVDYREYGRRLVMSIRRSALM", "sequence (P15927 whole entry, chain 2 of 3)": "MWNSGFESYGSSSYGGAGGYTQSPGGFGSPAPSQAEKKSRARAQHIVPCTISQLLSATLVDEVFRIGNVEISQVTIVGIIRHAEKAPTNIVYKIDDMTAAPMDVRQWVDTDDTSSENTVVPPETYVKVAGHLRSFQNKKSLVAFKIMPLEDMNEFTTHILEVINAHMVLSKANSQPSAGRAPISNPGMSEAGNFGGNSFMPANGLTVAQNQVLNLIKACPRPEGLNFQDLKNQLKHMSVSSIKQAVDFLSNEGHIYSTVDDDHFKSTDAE", "sequence (P35244 whole entry, chain 3 of 3)": "as the sequence (P35244 whole entry, chain 3 of 3) above", "test": "CD titration (G4 unfolding); 100 mM NaCl, 2 mM Mg2+; complete unfolding at RPA:DNA ratio 2; 25 mM Tris pH 7.5, 2 mM MgCl2, 0.5% inositol, 1 mM DTT, 100 mM NaCl or 100 mM KCl, 25 C; 1.4 uM DNA, protein:DNA ratio 0-5", "details": "protein: recombinant; copies: 1;1;1; intramolecular G4; mixed parallel/antiparallel in K+, antiparallel in Na+"}},
  "data": [
    {"binder": "TAGGGGAAGGGTTGGAGTGGGTT (structured_DNA)", "note": "[Gq23]", "values": [
      {"measurement": "binding result", "setting": "[1]", "value": "binds"},
      {"measurement": "binding result", "setting": "[2]", "value": "binds"}
    ]}
  ]
}
